Assay [1] deals with GST-tagged EZH2, purified recombinant (human, UniProt Q15910 1-746). Description: AlphaScreen or HTRF. A general note: Bead proximity is the source of the signal in Alpha formats.
In assay [2] the target is Flag-tagged EZH2, purified recombinant (human, UniProt Q15910 1-746). Nature of the assay: AlphaScreen or HTRF.
Chain of Flag-tagged EZH2, purified recombinant (Q15910 whole entry): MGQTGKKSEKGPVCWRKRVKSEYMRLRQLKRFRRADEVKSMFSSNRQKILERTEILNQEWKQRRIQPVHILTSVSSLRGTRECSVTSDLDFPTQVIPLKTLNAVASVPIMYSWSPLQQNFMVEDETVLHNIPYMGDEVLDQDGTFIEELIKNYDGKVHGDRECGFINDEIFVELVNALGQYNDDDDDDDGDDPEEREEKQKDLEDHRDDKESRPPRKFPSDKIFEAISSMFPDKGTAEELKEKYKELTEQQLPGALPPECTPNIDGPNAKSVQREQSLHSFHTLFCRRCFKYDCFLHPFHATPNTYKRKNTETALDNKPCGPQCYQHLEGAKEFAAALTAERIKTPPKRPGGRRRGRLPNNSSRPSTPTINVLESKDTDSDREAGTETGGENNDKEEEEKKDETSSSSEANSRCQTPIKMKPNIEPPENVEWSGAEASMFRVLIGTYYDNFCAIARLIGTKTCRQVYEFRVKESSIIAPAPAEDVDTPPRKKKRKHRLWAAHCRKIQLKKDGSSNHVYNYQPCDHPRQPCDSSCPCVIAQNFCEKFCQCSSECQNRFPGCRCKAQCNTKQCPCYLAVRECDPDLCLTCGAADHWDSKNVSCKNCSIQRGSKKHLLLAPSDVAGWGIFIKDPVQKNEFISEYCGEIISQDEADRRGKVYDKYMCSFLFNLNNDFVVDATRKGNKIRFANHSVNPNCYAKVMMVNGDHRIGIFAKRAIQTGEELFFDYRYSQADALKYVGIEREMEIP

Chain of GST-tagged EZH2, purified recombinant (Q15910 whole entry): as above

B1: unlabeled FBL, purified recombinant (natural protein, human, UniProt P22087 1-321, looked up)
chain: MKPGFSPRGGGFGGRGGFGDRGGRGGRGGFGGGRGRGGGFRGRGRGGGGGGGGGGGGGRGGGGFHSGGNRGRGRGGKRGNQSGKNVMVEPHRHEGVFICRGKEDALVTKNLVPGESVYGEKRVSISEGDDKIEYRAWNPFRSKLAAAILGGVDQIHIKPGAKVLYLGAASGTTVSHVSDIVGPDGLVYAVEFSHRSGRDLINLAKKRTNIIPVIEDARHPHKYRMLIAMVDVIFADVAQPDQTRIVALNAHTFLRNGGHFVISIKANCIDSTASAEAVFASEVKKMQQENMKPQEQLTLEPYERDHAVVVGVYRPPPKVKN
With B1, the Kd in assay [1] came out at 842 nM.

B2: unlabeled NOP56, purified recombinant (natural protein, human, UniProt O00567 1-594, looked up)
chain: MVLLHVLFEHAVGYALLALKEVEEISLLQPQVEESVLNLGKFHSIVRLVAFCPFASSQVALENANAVSEGVVHEDLRLLLETHLPSKKKKVLLGVGDPKIGAAIQEELGYNCQTGGVIAEILRGVRLHFHNLVKGLTDLSACKAQLGLGHSYSRAKVKFNVNRVDNMIIQSISLLDQLDKDINTFSMRVREWYGYHFPELVKIINDNATYCRLAQFIGNRRELNEDKLEKLEELTMDGAKAKAILDASRSSMGMDISAIDLINIESFSSRVVSLSEYRQSLHTYLRSKMSQVAPSLSALIGEAVGARLIAHAGSLTNLAKYPASTVQILGAEKALFRALKTRGNTPKYGLIFHSTFIGRAAAKNKGRISRYLANKCSIASRIDCFSEVPTSVFGEKLREQVEERLSFYETGEIPRKNLDVMKEAMVQAEEAAAEITRKLEKQEKKRLKKEKKRLAALALASSENSSSTPEECEEMSEKPKKKKKQKPQEVPQENGMEDPSISFSKPKKKKSFSKEELMSSDLEETAGSTSIPKRKKSTPKEETVNDPEEAGHRSGSKKKRKFSKEEPVSSGPEEAVGKSSSKKKKKFHKASQED
For B2, the Kd in assay [2] is 43.6 nM.

One may read the Kd as the concentration at which binding is half-saturated.

The values above are taken from publication PMC8162121 (Nature cell biology, 2021).
